Test results reported in article PMC7104407, “DBC1, p300, HDAC3, and Siah1 coordinately regulate ELL stability and function for expression of its target genes” (Proceedings of the National Academy of Sciences of the …, 2020).

Target: T1, GST–ELL (human, UniProt P55199 1-621)
T1 construct: ELL (ELL1), human elongation factor; also called purified recombinant GST–ELL; source: bacterial expression system, purified
Test: pull-down; in vitro direct interaction assay with purified GST–ELL or GST and purified HDAC3
Conditions: both partners purified

binding result: binds
B1: HDAC3, purified (enzyme, human, UniProt O15379 1-428, looked up)
chain: MAKTVAYFYDPDVGNFHYGAGHPMKPHRLALTHSLVLHYGLYKKMIVFKPYQASQHDMCRFHSEDYIDFLQRVSPTNMQGFTKSLNAFNVGDDCPVFPGLFEFCSRYTGASLQGATQLNNKICDIAINWAGGLHHAKKFEASGFCYVNDIVIGILELLKYHPRVLYIDIDIHHGDGVQEAFYLTDRVMTVSFHKYGNYFFPGTGDMYEVGAESGRYYCLNVPLRDGIDDQSYKHLFQPVINQVVDFYQPTCIVLQCGADSLGCDRLGCFNLSIRGHGECVEYVKSFNIPLLVLGGGGYTVRNVARCWTYETSLLVEEAISEELPYSEYFEYFAPDFTLHPDVSTRIENQNSRQYLDQIRQTIFENLKMLNHAPSVQIHDVPADLLTYDRTDEADAEERGPEENYSRPEAPNEFYDGDHDNDKESDVEI
notes: histone deacetylase 3, human; also called purified HDAC3; source: overexpressed in mammalian 293T cells, purified (high salt-based purification method)
